Here are results for 125 sequences from the supplement of paper PMC9112550, “Optimization of the antimicrobial peptide Bac7 by deep mutational scanning” (BMC Biology, 2022).

The test system of the series is Escherichia coli TOP10. Put plainly: shrunken log2 fold change of peptide-encoding DNA abundance (4.5 h post-induction vs induction); higher = less antimicrobial activity (less host growth inhibition). The following applies: time post-induction: 4.5 h; library: site-saturation at positions 5, 18, 19, 20.
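Further: peptides expressed intracellularly from a pBAD plasmid library in pooled LB shake-flask culture, induced with 0.3% L-arabinose, DNA abundance read by NGS, three biological replicates, DESeq2 with apeglm shrinkage.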

Take RRIRPRPPRLPRPRPRPTRHPRP: the “shrunken log2 fold change” value turned out to be 0.43.
For RRIRFRPPRLPRPRPRPDVPPRP the value was -0.356.
In the case of RRIRWRPPRLPRPRPRPQEGPRP, the “shrunken log2 fold change” value was -0.00127.
On to RRIRPRPPRLPRPRPRPNCDPRP, for which the “shrunken log2 fold change” value was -0.257.
Consider RRIRVRPPRLPRPRPRPITLPRP, for which the “shrunken log2 fold change” value stood at 1.44.
Then RRIRLRPPRLPRPRPRPEATPRP, with 0.294; and RRIRHRPPRLPRPRPRPVDIPRP, with -0.167.
For RRIRPRPPRLPRPRPRPTYGPRP the value was -0.171; for RRIRKRPPRLPRPRPRPIMRPRP, -0.00968; for RRIRRRPPRLPRPRPRPREVPRP, 0.442.
Then RRIRDRPPRLPRPRPRPHEPPRP, with 0.211; and RRIRRRPPRLPRPRPRPNWPPRP, with 0.118; and RRIRHRPPRLPRPRPRPCTNPRP, with -0.249.
On to RRIRCRPPRLPRPRPRPIVAPRP, for which the “shrunken log2 fold change” value worked out at 0.0801.
Then RRIRKRPPRLPRPRPRPHWQPRP, with 0.3; and RRIRNRPPRLPRPRPRPKVGPRP, with 0.148.
For RRIRCRPPRLPRPRPRPRHKPRP the value was -0.265; for RRIRQRPPRLPRPRPRPIIVPRP, -0.0856.
For the sequence RRIRWRPPRLPRPRPRPVPFPRP, the “shrunken log2 fold change” value came to 0.122.
Then RRIRLRPPRLPRPRPRPWSFPRP, with 0.018; and RRIRQRPPRLPRPRPRPEWGPRP, with 0.125.
For RRIRQRPPRLPRPRPRPYGLPRP, the “shrunken log2 fold change” value is -0.048.
As to RRIRSRPPRLPRPRPRPHQKPRP, the “shrunken log2 fold change” value is -0.189.
With RRIRARPPRLPRPRPRPEGFPRP, the “shrunken log2 fold change” value is 0.566.
Take RRIRERPPRLPRPRPRPTGEPRP: the “shrunken log2 fold change” value was -0.0152.
Take RRIRMRPPRLPRPRPRPLETPRP: the “shrunken log2 fold change” value stood at 2.02.
Then RRIRNRPPRLPRPRPRPDTCPRP, with -0.279; and RRIRYRPPRLPRPRPRPDKSPRP, with -1.15; and RRIRWRPPRLPRPRPRPAWEPRP, with 0.534.
RRIRHRPPRLPRPRPRPLHKPRP: the “shrunken log2 fold change” value was -0.294.
Then RRIRFRPPRLPRPRPRPEPIPRP, with 0.291; and RRIRWRPPRLPRPRPRPVWAPRP, with 0.263.
Then RRIRHRPPRLPRPRPRPMCNPRP, with -0.186.
On to RRIRRRPPRLPRPRPRPFIPPRP, for which the “shrunken log2 fold change” value was -0.506.
RRIRVRPPRLPRPRPRPTWKPRP: the “shrunken log2 fold change” value is -0.0442.
Take RRIRMRPPRLPRPRPRPMEEPRP: the “shrunken log2 fold change” value was determined as 2.45.
For RRIRARPPRLPRPRPRPVGYPRP the value was 0.265.
For RRIRQRPPRLPRPRPRPPAFPRP the value was 0.379; for RRIRIRPPRLPRPRPRPRNTPRP, -0.208; for RRIRNRPPRLPRPRPRPSMAPRP, -0.139.
With RRIRRRPPRLPRPRPRPSTLPRP, the “shrunken log2 fold change” value was -0.174.
For RRIRQRPPRLPRPRPRPTSKPRP the value was -0.189; for RRIRNRPPRLPRPRPRPETVPRP, -0.00716; for RRIRIRPPRLPRPRPRPQNTPRP, -0.86.
RRIRFRPPRLPRPRPRPDKEPRP: the “shrunken log2 fold change” value is -0.0026.
Then RRIRKRPPRLPRPRPRPIVSPRP, with -0.0354; and RRIRLRPPRLPRPRPRPYAVPRP, with 0.00157.
For RRIRTRPPRLPRPRPRPVPHPRP the value was -0.0291; for RRIRERPPRLPRPRPRPHSQPRP, 0.061.
As to RRIRHRPPRLPRPRPRPMDQPRP, the “shrunken log2 fold change” value is -0.0412.
On to RRIRYRPPRLPRPRPRPTPIPRP, for which the “shrunken log2 fold change” value is -0.158.
For the sequence RRIRNRPPRLPRPRPRPWVRPRP, the “shrunken log2 fold change” value is -0.0742.
Turning to RRIRPRPPRLPRPRPRPVFLPRP, the “shrunken log2 fold change” value was -0.128.
Then RRIRCRPPRLPRPRPRPYNHPRP, with -0.416; and RRIRIRPPRLPRPRPRPYKHPRP, with -1.57.
With RRIRFRPPRLPRPRPRPVHYPRP, the “shrunken log2 fold change” value was -0.195.
With RRIRFRPPRLPRPRPRPLQYPRP, the “shrunken log2 fold change” value is -0.242.
Then RRIRPRPPRLPRPRPRPHRQPRP, with -0.149; and RRIRFRPPRLPRPRPRPHYFPRP, with -0.161.
Turning to RRIRQRPPRLPRPRPRPAWLPRP, the “shrunken log2 fold change” value is -0.123.
As for RRIRMRPPRLPRPRPRPDRAPRP, the “shrunken log2 fold change” value came to 0.861.
For RRIRARPPRLPRPRPRPPCDPRP the value was 0.506.
For RRIRQRPPRLPRPRPRPNVWPRP the value was 0.134.
For RRIRRRPPRLPRPRPRPSCDPRP the value was 0.177.
As for RRIRGRPPRLPRPRPRPRFAPRP, the “shrunken log2 fold change” value turned out to be 0.99.
For RRIRSRPPRLPRPRPRPSMQPRP the value was -0.242; for RRIRPRPPRLPRPRPRPHTTPRP, 0.0817.
For RRIRDRPPRLPRPRPRPYPFPRP the value was -0.671.
Then RRIRLRPPRLPRPRPRPMGSPRP, with -0.000911.
With RRIRQRPPRLPRPRPRPAAVPRP, the “shrunken log2 fold change” value is -0.0726.
For RRIRPRPPRLPRPRPRPDNWPRP the value was -0.121; for RRIRIRPPRLPRPRPRPHDPPRP, -0.296.
For RRIRVRPPRLPRPRPRPITFPRP the value was -0.0498; for RRIRARPPRLPRPRPRPVWCPRP, 0.293.
For RRIRRRPPRLPRPRPRPYNHPRP, the “shrunken log2 fold change” value is -0.8.
As for RRIRIRPPRLPRPRPRPDPHPRP, the “shrunken log2 fold change” value was -0.314.
Then RRIRQRPPRLPRPRPRPTLMPRP, with 0.369; and RRIRPRPPRLPRPRPRPWIPPRP, with -0.225; and RRIRLRPPRLPRPRPRPTCQPRP, with 0.0421.
For RRIRPRPPRLPRPRPRPLMQPRP the value was 0.124; for RRIRSRPPRLPRPRPRPVTCPRP, -0.299; for RRIRARPPRLPRPRPRPWEDPRP, -0.015.
Consider RRIRARPPRLPRPRPRPHWYPRP, for which the “shrunken log2 fold change” value was 0.157.
For RRIRFRPPRLPRPRPRPVMSPRP the value was -0.153.
As for RRIRLRPPRLPRPRPRPLMFPRP, the “shrunken log2 fold change” value was -0.215.
Consider RRIRFRPPRLPRPRPRPCRTPRP, for which the “shrunken log2 fold change” value amounted to 0.048.
For RRIRDRPPRLPRPRPRPQHQPRP the value was -0.108; for RRIRVRPPRLPRPRPRPDGNPRP, -0.189; for RRIRSRPPRLPRPRPRPCNLPRP, -0.561.
For RRIRMRPPRLPRPRPRPAGMPRP the value was 0.655.
Then RRIRPRPPRLPRPRPRPLFPPRP, with -0.0198; and RRIRQRPPRLPRPRPRPKYTPRP, with -0.776; and RRIRKRPPRLPRPRPRPKAFPRP, with 0.0156.
On to RRIRRRPPRLPRPRPRPEWVPRP, for which the “shrunken log2 fold change” value came to 0.344.
For RRIRERPPRLPRPRPRPTYYPRP the value was -0.614.
Regarding RRIRFRPPRLPRPRPRPMNTPRP, the “shrunken log2 fold change” value was found to be 0.0693.
RRIRARPPRLPRPRPRPEDHPRP: the “shrunken log2 fold change” value was determined as 0.392.
In the case of RRIRERPPRLPRPRPRPVKYPRP, the “shrunken log2 fold change” value was -0.0311.
For RRIRFRPPRLPRPRPRPEWEPRP the value was 0.00489.
Then RRIRIRPPRLPRPRPRPCHCPRP, with 0.0274.
Then RRIRCRPPRLPRPRPRPWQNPRP, with -0.124; and RRIRDRPPRLPRPRPRPDYNPRP, with -0.204; and RRIRCRPPRLPRPRPRPEAIPRP, with 0.117.
In the case of RRIRWRPPRLPRPRPRPLWGPRP, the “shrunken log2 fold change” value came to 0.08.
With RRIRWRPPRLPRPRPRPTNGPRP, the “shrunken log2 fold change” value was -0.134.
Then RRIRKRPPRLPRPRPRPCLEPRP, with 0.0959; and RRIRNRPPRLPRPRPRPAYPPRP, with 0.0183.
Turning to RRIRSRPPRLPRPRPRPRGQPRP, the “shrunken log2 fold change” value came to 0.197.
Take RRIRDRPPRLPRPRPRPGAKPRP: the “shrunken log2 fold change” value is 0.592.
Then RRIRWRPPRLPRPRPRPRWAPRP, with 0.662.
In the case of RRIRERPPRLPRPRPRPIIEPRP, the “shrunken log2 fold change” value came out at 0.0238.
Then RRIRKRPPRLPRPRPRPKLSPRP, with -0.0159; and RRIRSRPPRLPRPRPRPILCPRP, with -0.35.
With RRIRERPPRLPRPRPRPVTNPRP, the “shrunken log2 fold change” value was -0.0383.
For RRIRYRPPRLPRPRPRPHNVPRP the value was -0.14; for RRIRARPPRLPRPRPRPSYMPRP, -0.761.
For RRIRNRPPRLPRPRPRPKFEPRP the value was 0.0146; for RRIRARPPRLPRPRPRPNVKPRP, -0.167.
For RRIRGRPPRLPRPRPRPWPHPRP the value was 0.074; for RRIRQRPPRLPRPRPRPGNHPRP, -0.0216.
Regarding RRIRCRPPRLPRPRPRPRTFPRP, the “shrunken log2 fold change” value is -0.24.
In the case of RRIRWRPPRLPRPRPRPKPKPRP, the “shrunken log2 fold change” value was -0.0893.
Regarding RRIRRRPPRLPRPRPRPNPDPRP, the “shrunken log2 fold change” value worked out at 0.314.
For RRIRKRPPRLPRPRPRPKFKPRP the value was 0.241.
Then RRIRVRPPRLPRPRPRPFDEPRP, with -0.242.
